Patent US20150344570A1 (published 2015)

T1: FcγRIIb extracellular domain with C-terminal His tag (human, UniProt P31994 43-217)
T1 construct: extracellular domain; expressed in FreeStyle293 cells; analyte in Biacore; also called FcgRIIb; 2b
T1 sequence (looked up): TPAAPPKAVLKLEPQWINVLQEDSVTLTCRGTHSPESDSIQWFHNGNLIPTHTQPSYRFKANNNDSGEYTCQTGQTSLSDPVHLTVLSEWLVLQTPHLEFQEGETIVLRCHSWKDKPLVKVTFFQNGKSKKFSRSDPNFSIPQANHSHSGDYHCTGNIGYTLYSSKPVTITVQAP

B1: GpH7-A5/GpH7-B3 variant Y296_08L/GpL16-k0 (antibody, human IgG1, kappa)
heavy 1: not shown
heavy 2: not shown
light: DIVMTQSPLSLPVTPGEPASISCQASESLVHSNRNTYLHWYLQKPGQSPQLLIYKVSNRFSGVPDRFSGSGSGTDFTLKISRVEAEDVGVYYCSQNTHVPPTFGQGTKVEIERTVAAPSVFIFPPSDEQLKSGTASVVCLLNNFYPREAKVQWKVDNALQSGNSQESVTEQDSKDSTYSLSSTLTLSKADYEKHKVYACEVTHQGLSSPVTKSFNRGEC
notes: He Ab; IgG1, mutation in one H chain
B2: GpH7-A5/GpH7-B3 variant Y300_13S/GpL16-k0 (antibody, human IgG1, kappa)
heavy 1: not shown
heavy 2: not shown
light: B1 light
notes: as for B1
B3: GpH7-A5/GpH7-B3 variant S298_15Y/GpL16-k0 (antibody, human IgG1, kappa)
heavy 1: not shown
heavy 2: not shown
light: B1 light
notes: as for B1
B4: GpH7-A5/GpH7-B3 variant S298_10E/GpL16-k0 (antibody, human IgG1, kappa)
heavy 1: not shown
heavy 2: not shown
light: B1 light
notes: as for B1
B5: GpH7-A5/GpH7-B3 variant Y296_03V/GpL16-k0 (antibody, human IgG1, kappa)
heavy 1: not shown
heavy 2: not shown
light: B1 light
notes: as for B1
B6: GpH7-A5/GpH7-B3 variant Y296_06M/GpL16-k0 (antibody, human IgG1, kappa)
heavy 1: not shown
heavy 2: not shown
light: B1 light
notes: as for B1
B7: GpH7-A5/GpH7-B3 variant Y300_11K/GpL16-k0 (antibody, human IgG1, kappa)
heavy 1: not shown
heavy 2: not shown
light: B1 light
notes: as for B1
B8: GpH7-A5/GpH7-B3 variant Y300_16H/GpL16-k0 (antibody, human IgG1, kappa)
heavy 1: not shown
heavy 2: not shown
light: B1 light
notes: as for B1
B9: GpH7-A5/GpH7-B3 variant Y300_03V/GpL16-k0 (antibody, human IgG1, kappa)
heavy 1: not shown
heavy 2: not shown
light: B1 light
notes: as for B1
B10: GpH7-A5/GpH7-B3 variant S298_20W/GpL16-k0 (antibody, human IgG1, kappa)
heavy 1: not shown
heavy 2: not shown
light: B1 light
notes: as for B1
B11: GpH7-A5/GpH7-B3 variant S298_19Q/GpL16-k0 (antibody, human IgG1, kappa)
heavy 1: not shown
heavy 2: not shown
light: B1 light
notes: as for B1
B12: GpH7-A5/GpH7-B3 variant S298_04F/GpL16-k0 (antibody, human IgG1, kappa)
heavy 1: not shown
heavy 2: not shown
light: B1 light
notes: as for B1
B13: GpH7-A5/GpH7-B3 variant S298_07I/GpL16-k0 (antibody, human IgG1, kappa)
heavy 1: not shown
heavy 2: not shown
light: B1 light
notes: as for B1
B14: GpH7-A5/GpH7-B3 variant Y296_12R/GpL16-k0 (antibody, human IgG1, kappa)
heavy 1: not shown
heavy 2: not shown
light: B1 light
notes: as for B1
B15: GpH7-A5/GpH7-B3 variant S298_09D/GpL16-k0 (antibody, human IgG1, kappa)
heavy 1: not shown
heavy 2: not shown
light: B1 light
notes: as for B1
B16: GpH7-A5/GpH7-B3 variant Y296_14T/GpL16-k0 (antibody, human IgG1, kappa)
heavy 1: not shown
heavy 2: not shown
light: B1 light
notes: as for B1
B17: GpH7-A5/GpH7-B3 variant Y296_11K/GpL16-k0 (antibody, human IgG1, kappa)
heavy 1: not shown
heavy 2: not shown
light: B1 light
notes: as for B1
B18: GpH7-A5/GpH7-B3 variant S324_02A/GpL16-k0 (antibody, human IgG1, kappa)
heavy 1: not shown
heavy 2: not shown
light: B1 light
notes: as for B1
B19: GpH7-A5/GpH7-B3 variant S298_01G/GpL16-k0 (antibody, human IgG1, kappa)
heavy 1: not shown
heavy 2: not shown
light: B1 light
notes: as for B1
B20: GpH7-A5/GpH7-B3 variant Y296_19Q/GpL16-k0 (antibody, human IgG1, kappa)
heavy 1: not shown
heavy 2: not shown
light: B1 light
notes: as for B1
B21: GpH7-A5/GpH7-B3 variant Y296_04F/GpL16-k0 (antibody, human IgG1, kappa)
heavy 1: not shown
heavy 2: not shown
light: B1 light
notes: as for B1
B22: GpH7-A5/GpH7-B3 variant Y296_10E/GpL16-k0 (antibody, human IgG1, kappa)
heavy 1: not shown
heavy 2: not shown
light: B1 light
notes: as for B1
B23: GpH7-A5/GpH7-B3 variant Y296_02A/GpL16-k0 (antibody, human IgG1, kappa)
heavy 1: not shown
heavy 2: not shown
light: B1 light
notes: as for B1
B24: GpH7-A5/GpH7-B3 variant S298_02A/GpL16-k0 (antibody, human IgG1, kappa)
heavy 1: not shown
heavy 2: not shown
light: B1 light
notes: as for B1
B25: GpH7-A5/GpH7-B3 variant Y300_02A/GpL16-k0 (antibody, human IgG1, kappa)
heavy 1: not shown
heavy 2: not shown
light: B1 light
notes: as for B1

Target: T2, FcγRIa extracellular domain with C-terminal His tag (human, UniProt P12314 16-292)
T2 construct: extracellular domain; expressed in FreeStyle293 cells; analyte in Biacore; also called FcgRI; 1a
T2 sequence (P12314 16-292): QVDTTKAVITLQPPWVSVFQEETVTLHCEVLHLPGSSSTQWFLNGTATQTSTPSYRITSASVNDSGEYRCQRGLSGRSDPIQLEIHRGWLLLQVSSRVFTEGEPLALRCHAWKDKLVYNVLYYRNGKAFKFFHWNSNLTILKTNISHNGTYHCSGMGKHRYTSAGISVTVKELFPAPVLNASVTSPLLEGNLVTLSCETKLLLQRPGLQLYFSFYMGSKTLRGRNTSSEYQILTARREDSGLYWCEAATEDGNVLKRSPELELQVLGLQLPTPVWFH
Assay: SPR (Biacore), captured antibody, FcγR as analyte; relative binding

| He/Con_1a | Binder |
| --- | --- |
| 104 % of HeCon Ab (GpH7-A5/GpH7-B3/GpL16-k0 = 100) | B1 |
| 111 % of HeCon Ab (GpH7-A5/GpH7-B3/GpL16-k0 = 100) | B2 |
| 107 % of HeCon Ab (GpH7-A5/GpH7-B3/GpL16-k0 = 100) | B3 |
| 108 % of HeCon Ab (GpH7-A5/GpH7-B3/GpL16-k0 = 100) | B4 |
| 104 % of HeCon Ab (GpH7-A5/GpH7-B3/GpL16-k0 = 100) | B5 |
| 104 % of HeCon Ab (GpH7-A5/GpH7-B3/GpL16-k0 = 100) | B6 |
| 107 % of HeCon Ab (GpH7-A5/GpH7-B3/GpL16-k0 = 100) | B7 |
| 111 % of HeCon Ab (GpH7-A5/GpH7-B3/GpL16-k0 = 100) | B8 |
| 117 % of HeCon Ab (GpH7-A5/GpH7-B3/GpL16-k0 = 100) | B9 |
| 104 % of HeCon Ab (GpH7-A5/GpH7-B3/GpL16-k0 = 100) | B10 |
| 109 % of HeCon Ab (GpH7-A5/GpH7-B3/GpL16-k0 = 100) | B11 |
| 109 % of HeCon Ab (GpH7-A5/GpH7-B3/GpL16-k0 = 100) | B12 |
| 107 % of HeCon Ab (GpH7-A5/GpH7-B3/GpL16-k0 = 100) | B13 |
| 106 % of HeCon Ab (GpH7-A5/GpH7-B3/GpL16-k0 = 100) | B14 |
| 106 % of HeCon Ab (GpH7-A5/GpH7-B3/GpL16-k0 = 100) | B15 |
| 105 % of HeCon Ab (GpH7-A5/GpH7-B3/GpL16-k0 = 100) | B16 |
| 105 % of HeCon Ab (GpH7-A5/GpH7-B3/GpL16-k0 = 100) | B17 |
| 103 % of HeCon Ab (GpH7-A5/GpH7-B3/GpL16-k0 = 100) | B18 |
| 104 % of HeCon Ab (GpH7-A5/GpH7-B3/GpL16-k0 = 100) | B19 |
| 112 % of HeCon Ab (GpH7-A5/GpH7-B3/GpL16-k0 = 100) | B20 |
| 104 % of HeCon Ab (GpH7-A5/GpH7-B3/GpL16-k0 = 100) | B21 |
| 106 % of HeCon Ab (GpH7-A5/GpH7-B3/GpL16-k0 = 100) | B22 |
| 103 % of HeCon Ab (GpH7-A5/GpH7-B3/GpL16-k0 = 100) | B23 |
| 107 % of HeCon Ab (GpH7-A5/GpH7-B3/GpL16-k0 = 100) | B24 |
| 112 % of HeCon Ab (GpH7-A5/GpH7-B3/GpL16-k0 = 100) | B25 |

Target: T1, FcγRIIb extracellular domain with …
Assay: as above

| He/Con_2b | Binder |
| --- | --- |
| 82.3 % of HeCon Ab (GpH7-A5/GpH7-B3/GpL16-k0 = 100) | B1 |
| 53.9 % of HeCon Ab (GpH7-A5/GpH7-B3/GpL16-k0 = 100) | B2 |
| 61.4 % of HeCon Ab (GpH7-A5/GpH7-B3/GpL16-k0 = 100) | B3 |
| 47.6 % of HeCon Ab (GpH7-A5/GpH7-B3/GpL16-k0 = 100) | B4 |
| 79.3 % of HeCon Ab (GpH7-A5/GpH7-B3/GpL16-k0 = 100) | B5 |
| 87.8 % of HeCon Ab (GpH7-A5/GpH7-B3/GpL16-k0 = 100) | B6 |
| 51.6 % of HeCon Ab (GpH7-A5/GpH7-B3/GpL16-k0 = 100) | B7 |
| 87 % of HeCon Ab (GpH7-A5/GpH7-B3/GpL16-k0 = 100) | B8 |
| 73.9 % of HeCon Ab (GpH7-A5/GpH7-B3/GpL16-k0 = 100) | B9 |
| 41.1 % of HeCon Ab (GpH7-A5/GpH7-B3/GpL16-k0 = 100) | B10 |
| 73.3 % of HeCon Ab (GpH7-A5/GpH7-B3/GpL16-k0 = 100) | B11 |
| 65.4 % of HeCon Ab (GpH7-A5/GpH7-B3/GpL16-k0 = 100) | B12 |
| 70.6 % of HeCon Ab (GpH7-A5/GpH7-B3/GpL16-k0 = 100) | B13 |
| 79.5 % of HeCon Ab (GpH7-A5/GpH7-B3/GpL16-k0 = 100) | B14 |
| 48.3 % of HeCon Ab (GpH7-A5/GpH7-B3/GpL16-k0 = 100) | B15 |
| 88.2 % of HeCon Ab (GpH7-A5/GpH7-B3/GpL16-k0 = 100) | B16 |
| 72.8 % of HeCon Ab (GpH7-A5/GpH7-B3/GpL16-k0 = 100) | B17 |
| 78.3 % of HeCon Ab (GpH7-A5/GpH7-B3/GpL16-k0 = 100) | B18 |
| 80.1 % of HeCon Ab (GpH7-A5/GpH7-B3/GpL16-k0 = 100) | B19 |
| 89.3 % of HeCon Ab (GpH7-A5/GpH7-B3/GpL16-k0 = 100) | B20 |
| 99.2 % of HeCon Ab (GpH7-A5/GpH7-B3/GpL16-k0 = 100) | B21 |
| 98 % of HeCon Ab (GpH7-A5/GpH7-B3/GpL16-k0 = 100) | B22 |
| 82 % of HeCon Ab (GpH7-A5/GpH7-B3/GpL16-k0 = 100) | B23 |
| 73.4 % of HeCon Ab (GpH7-A5/GpH7-B3/GpL16-k0 = 100) | B24 |
| 69.2 % of HeCon Ab (GpH7-A5/GpH7-B3/GpL16-k0 = 100) | B25 |
